Results on one protein are retold here after publication PMC10851751, “Characterization and insight mechanism of an acid-adapted β-Glucosidase from Lactobacillus paracasei and its application in bioconversion of glycosides” (Frontiers in Bioengineering and Biotechnology, 2024).

Substrate in data set [1]: OC[C@H]1O[C@@H](Oc2cc(O)cc(/C=C/c3ccc(O)cc3)c2)[C@H](O)[C@@H](O)[C@@H]1O
The data set can be described thus: HPLC of glucose or aglycone, Michaelis-Menten fit. The class given is biochemical, Lacticaseibacillus paracasei. To be noted: pH 5.5, 30°C, 0.5-15 mM substrate. An excerpt:
(§1) HPLC of glucose or aglycone, Michaelis-Menten fit on LpBgla

Substrate in data set [2]: O=c1ccc2cc(O[C@@H]3O[C@H](CO)[C@@H](O)[C@H](O)[C@H]3O)c(O)cc2o1
Put plainly: HPLC of glucose or aglycone, Michaelis-Menten fit. The class given is biochemical, Lacticaseibacillus paracasei. Particulars: pH 5.5, 30°C, 0.5-15 mM substrate.
Source text: as §1

Substrate in data set [3]: OC[C@H]1O[C@@H](Oc2ccc(O)cc2)[C@H](O)[C@@H](O)[C@@H]1O
The data set can be described thus: HPLC of glucose or aglycone, Michaelis-Menten fit. Format: biochemical, Lacticaseibacillus paracasei. To be noted: pH 5.5, 30°C, 0.5-15 mM substrate.
Source text: as §1

Substrate in data set [4]: COC(=O)C1=CO[C@@H](O[C@@H]2O[C@H](CO)[C@@H](O)[C@H](O)[C@H]2O)[C@@H]2C(CO)=CC[C@H]12
Put plainly: HPLC of glucose or aglycone, Michaelis-Menten fit. The class given is biochemical, Lacticaseibacillus paracasei. To be noted: pH 5.5, 30°C, 0.5-15 mM substrate.
Source text: as §1

Substrate in data set [5]: OCc1ccccc1O[C@@H]1O[C@H](CO)[C@@H](O)[C@H](O)[C@H]1O
The data set can be described thus: HPLC of glucose or aglycone, Michaelis-Menten fit. The class given is biochemical, Lacticaseibacillus paracasei. To be noted: pH 5.5, 30°C, 0.5-15 mM substrate.
Source text: as §1

Substrate in the data set “purified protein”: O=[N+]([O-])c1ccc(O[C@@H]2O[C@H](CO)[C@@H](O)[C@H](O)[C@H]2O)cc1
Put plainly: purified protein. Particulars: pH 5.5, 30°C, 0.5-15 mM substrate, authors note sigmoidal v0 vs [S].

B1: LpBgla (Lacticaseibacillus paracasei ATCC 334) (protein)
chain: MGVVVSNFHLAKITAEEKVKLTSGKDFWTSEHLADKGIPSFRMSDGPHGLRYQALAADHLGINDSVPSTSFPTASASAAAWDPDLIQAMGKAIGLEAQSLGVDMVLGPGVNMKRNPLCGRNFEYFSEDPFLAGKLGAAWINGIQSQGIAACLKHFAANNQENDRLSSDSLVDPTALHEIYLEAFRIAVTESHPEAVMCSYNKINGTYASDNLYLMTQVLRQQFGFGGAVITDWGALNDKVAALNAGTDLEMPGDDHLFDGEALQAYQQGTLKLASLDRAVTKIAEIARKQRPKFQGSREQLLQANGQLAQKIAESAIVLLKNEAALLPLQATDTVAVIGELAKATRFQGAGSSHINASEIVSVLDGLKQKKVSFDYAAGYRLDDQDDSQATAEALALARNHDKVVFVAGLPDNYESEGFDRQNMALPKVQNDLLQAVTAVNPNVIVLLVAGAPVELPWVDQVKAVVNLSLGGERIGAAAANVLTGAVNPSGKLAESYPLKYQDVPSADVYDKKPRSVPYVESTYIGYRYYDKAKVPVAFPFGFGLSYTSFALKNIQLSSDHVTDDQPLTISLQVTNTGQVDGAEVVQVYVQEQQPRPLRPEKSLKAFKKVFVKAGQTVNVALELKAQAFKEWREQTQTWVLPEAQKAIAVGTSVTNIDAVLPVSFTGETFNNFATIPNWYTTLSGKPSVQDFEQLTDQKVPAPHEFVPGEFTRLNTPREMKKHSLLLRLVAWITVKIRTKDYIDKQGPEAKFQQAIVLDTPLIRLAQQASGALKLSMVDRLVAAANHQYVKMIFR
notes: full-length gene (2,388 bp, 796 amino acids), pET28a, His-tagged, E. coli BL21(DE3), Ni-NTA; monomer
Turning to B1, the Km in data set [1] worked out at 5710 ± 100 µM; in data set [2], 3610 ± 80 µM; in data set [3], 1920 ± 30 µM; in data set [4] it was 2870 ± 50 µM; in data set [5], 2250 ± 10 µM; in the data set “purified protein”, 1440 ± 80 µM. The kcat in data set [1] came out at 1730 ± 45 s⁻¹; in data set [2], 2210 ± 38 s⁻¹; in data set [3], 3570 ± 72 s⁻¹; in data set [4] it was 2520 ± 23 s⁻¹; in data set [5], 2970 ± 88 s⁻¹; in the data set “purified protein”, 3982 ± 14 s⁻¹. For the same protein, the kcat/Km was determined as 303000 M⁻¹ s⁻¹ in data set [1]; 611000 M⁻¹ s⁻¹ in data set [2]; 1.86e+06 M⁻¹ s⁻¹ in data set [3]; 878000 M⁻¹ s⁻¹ in data set [4]; 1.32e+06 M⁻¹ s⁻¹ in data set [5]; 2.76e+06 M⁻¹ s⁻¹ in the data set “purified protein”.

Usually Km stands for the concentration of substrate that gives half-maximal velocity. The term kcat denotes the maximal rate divided by the concentration of active sites. By kcat/Km is commonly meant the second-order rate constant that governs catalysis at low substrate concentration.
